# From patent publication EP1730287B1 (Syngenta Participations AG, dated 2011)
# T1: NIM450 bait (first 450 amino acids of the NIM1 protein fused to the LexA DNA binding domain) (Arabidopsis, UniProt P0A7C2 1-202; P93002 1-450)
# T1 construct: Truncated bait of the yeast two-hybrid screen
# T1 sequence (looked up): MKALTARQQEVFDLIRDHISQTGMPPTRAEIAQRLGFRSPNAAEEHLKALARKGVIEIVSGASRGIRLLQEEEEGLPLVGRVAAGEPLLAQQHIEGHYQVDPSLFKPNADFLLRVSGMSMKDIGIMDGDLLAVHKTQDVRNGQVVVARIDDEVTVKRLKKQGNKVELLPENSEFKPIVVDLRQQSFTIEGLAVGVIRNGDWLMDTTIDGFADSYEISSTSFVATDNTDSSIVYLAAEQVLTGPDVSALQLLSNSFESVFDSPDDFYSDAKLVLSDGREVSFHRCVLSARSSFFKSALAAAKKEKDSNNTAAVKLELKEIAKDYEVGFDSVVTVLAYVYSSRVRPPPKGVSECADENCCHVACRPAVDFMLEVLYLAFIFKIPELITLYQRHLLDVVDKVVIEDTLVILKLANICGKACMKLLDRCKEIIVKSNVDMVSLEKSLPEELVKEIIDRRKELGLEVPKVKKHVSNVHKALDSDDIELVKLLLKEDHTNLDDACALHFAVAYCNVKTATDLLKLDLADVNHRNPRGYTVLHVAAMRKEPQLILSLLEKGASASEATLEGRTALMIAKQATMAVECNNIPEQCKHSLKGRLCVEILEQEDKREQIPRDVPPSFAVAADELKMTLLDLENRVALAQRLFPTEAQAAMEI
# Target: T1, NIM450 bait (first 450 amino acids of …)
# Assay: yeast two-hybrid (LexA bait, B42 prey; Leu2 and LacZ reporters)
binder,measurement,value
"NI16 clone (Arabidopsis NI16 cDNA clone from the pJG4-5 library, fused to the B42 transcriptional activation domain) (other, not shown: large carriers, Prey of the yeast two-hybrid screen; also called NI16 protein) MNNSLKKEERVEEDNGKSDGNRGKPSTEVVRTVTEEEVDEFFKILRRVHVATRTVAKVNGGVAEGELPSKKRKRSQNLGLRNSLDCNGVRDGEFDEINRVGLQGLGLDLNCKPEPDSVSLSL",binding result,no binding
